Ends that are not written are not given here.
Tests used:
patients with CaP [1] = settings: in vivo
patients with CaP [2] = assay: Toxicity graded by NIH Common Terminology Criteria for Adverse Events v3.0
[3] = type: physicochemical
Experimental: Identified candidate peptides were synthesized (Protein Laboratory, Research Resources Facility, University of Illinois, Chicago) at greater than 95% purity, dissolved in dimethylsulphoxide (DMSO) at a concentration of 5 mg/ml and stored at −20° C. Peptides were tested for their ability to stabilize the expression of HLA-A2 on antigen-processing defective T2 cell line (ATCC, Manassas, Va.) as previously described [Xue et al., Prostate 1997; 30:73-78]. Briefly, 5×10^5 T2 cells in RPMI 1640 medium containing 10% fetal bovine serum (BioWhitaker, Walkersville, Md.) were incubated with varying amounts (1 to 80 ug/ml) of TEM8 peptide or control HIV-RT476-484 peptide, and cultured in 24 well plates for 18 hours at 37° C. HLA-A2 expression was visualized by direct staining with FITC conjugated MA2.1 antibody or an isotype control (BD Biosciences, San Diego, Calif.) followed by analysis on a FC500 flow cytometer (Beckman Coulter, Miami, Fla.).
TEM8 is known to share 60% sequence homology within the extracellular integrin-like-I domain region with another protein called capillary morphogenesis protein 2 (CMG2) that is widely expressed in normal tissues [Chen et al., J Biol. Chem. 2007 Mar. 30; 282(13):9834-45. Epub 2007 Jan 24]. […] Three remaining peptides were tested in T2 binding assays. […]

HLA-A2 = HLA-A2 (Homo sapiens, UniProt P04439, D140Y/D185E/D98H/E176V/E277Q/G131W/G231S/I119V/I121R/I166T/I218V/L300P/L318F/N151K/N90K/P208A/P217A/Q86G/Q94H/R138H/R169H/T345S); assay: T2 binding assay: stabilization of HLA-A2 expression by TEM8 peptides; settings: for expression of HLA-A2 on T2 cells over baseline levels: baseline T2 + DMSO, TEM8 207-215 10 ug/ml, TEM8 298-306 40 ug/ml (FIG. 9)
HLA-A201 = target: T1, HLA-A201 (Homo sapiens, UniProt P04439, D140Y/D185E/D98H/E176V/E277Q/G131W/G231S/I119V/I121R/I166T/I218V/L300P/L318F/N151K/N90K/P208A/P217A/Q86G/Q94H/R138H/R169H/T345S); assay: Peptide-binding assay on T2 cells (PSA peptide)
T1 construct: stabilize the expression of HLA-A2 on antigen-processing defective T2 cell line; host or cells: T2 cells
Experimental: The antigen-processing defective cell line, T2, was used to assay peptide binding to HLA-A201 as previously detailed [Xue et al., Prostate 30(2): 73-8 (1997)]. Briefly, T2 cells (5×10^5/well) were pulsed with PSA-peptide or DMSO at the designated concentration and cultured in 24-well plates overnight (18 hours) at 37° C. in 5% CO2 atmosphere. HLA-A2 expression was measured by flow cytometry using FITC conjugated anti HLA-A2 antibody (clone BB7.2) from BD Biosciences (San Diego, Calif.).

Compound	T2 binding (HLA-A2)	expression of HLA-A2 on T2 cells over baseline levels (HLA-A2)	also measured
CC(C)C[C@H](NC(=O)[C@H](CC(=O)O)NC(=O)[C@@H](NC(=O)[C@H](CS)NC(=O)[C@H](CCC(N)=O)NC(=O)[C@H](CC(C)C)NC(=O)[C@@H](N)CCCCN)C(C)C)C(=O)N[C@@H](Cc1c[nH]cn1)C(=O)N[C@H](C(=O)O)C(C)C [PSA146-154 peptide]			treatment related grade 3/4 toxicities (patients with CaP [1]): no treatment related grade 3/4 toxicities; late safety (patients with CaP [2]; after six to eight years of monitoring): no late safety concerns or deleterious sequelae; reactions at the site of injection (patients with CaP [2]; all patients under protocol-1 (intradermal peptide + GM-CSF)): Mild pain, itching, and erythema with or without induration
FLLLALALL [TEM8 331-339]			solubility in DMSO [3]: insoluble in DMSO
ALQGIIHSI [TEM8 207-215, 9-mer HLA-A0201 peptide of Tumor Endothelial Marker-8]	Yes	showed enhanced expression of HLA-A2 over baseline levels	binding affinity in comparison to HIV-RT 476-484 (HLA-A2; control HLA-0201 binding peptide): greater binding affinity
CALPERPSLYTKVVHYRKWIK [PSA210-230 peptide, long chain synthetic peptide corresponding to PSA residues 210-230]			HLA-A201 binding capacity (HLA-A201): binds with high affinity in a concentration dependent fashion
TLNEKPFSV [TEM8 266-274, 9-mer HLA-A0201 peptide of Tumor Endothelial Marker-8]	No	did not	
SMNDGLSFI [TEM8 298-306, 9-mer HLA-A0201 peptide of Tumor Endothelial Marker-8]	Yes	showed enhanced expression of HLA-A2 over baseline levels	

From US8557777B2, “Methods for treating cancer using prostate specific antigen and tumor endothelial marker peptides” (The Board of Trustees of the University of Illinois, priority 2010, dated 2013)
